# Patent US20140335107A1 (published 2014)
# Substitutions are numbered along the chain they refer to.
# B1: huMA79b graft variant with HVR-L1 of SEQ ID NO: 17 (Fab, name in Kabat numbering, V domains shown)
# VH: EVQLVESGGGLVQPGGSLRLSCAASGYTFSSYWIEWVRQAPGKGLEWVGEILPGGGDTNYNEIFKGRFTISADTSKNTAYLQMNSLRAEDTAVYYCTRRVPVYFDYWGQGTLVTVSS
# VL: DIQMTQSPSSLSASVGDRVTITCKASKSVDYDGDSFLNWYQQKPGKAPKLLIYAASNLESGVPSRFSGSGSGTDFTLTISSLQPEDFATYYCQQSNEDPLTFGQGTKVEIKR
# notes: Fab on phage; also called SPL-2 mutation
# B2: huMA79b graft variant with HVR-L2 of SEQ ID NO: 31 (Fab, name in Kabat numbering, V domains shown)
# VH: B1 VH
# VL: B1 VL with K27Q, S56R, N57K, E59G
# notes: Fab on phage; also called L2-38 mutation
# B3: huMA79b graft variant with HVR-L2 of SEQ ID NO: 34 (Fab, name in Kabat numbering, V domains shown)
# VH: B1 VH
# VL: B1 VL with K27Q, A55G, N57K, E59L, S60R
# notes: Fab on phage
# B4: huMA79b graft variant with HVR-L2 of SEQ ID NO: 27 (Fab, name in Kabat numbering, V domains shown)
# VH: B1 VH
# VL: B1 VL with K27Q, S56R, N57K, E59K
# notes: Fab on phage
# B5: huMA79b graft variant with HVR-L2 of SEQ ID NO: 23 (Fab, name in Kabat numbering, V domains shown)
# VH: B1 VH
# VL: B1 VL with K27Q, N57R
# notes: Fab on phage
# B6: huMA79b graft variant with HVR-L2 of SEQ ID NO: 26 (Fab, name in Kabat numbering, V domains shown)
# VH: B1 VH
# VL: B1 VL with K27Q, S56R, N57Y, E59K, S60R
# notes: Fab on phage; also called L2-29 mutation
# B7: huMA79b graft variant with HVR-L2 of SEQ ID NO: 29 (Fab, name in Kabat numbering, V domains shown)
# VH: B1 VH
# VL: B1 VL with K27Q, S56G, N57I, E59A, S60R
# notes: Fab on phage
# B8: huMA79b graft variant with HVR-L2 of SEQ ID NO: 32 (Fab, name in Kabat numbering, V domains shown)
# VH: B1 VH
# VL: B1 VL with K27Q, S56R, N57H, E59K, S60R
# notes: Fab on phage
# B9: huMA79b graft variant with HVR-L2 of SEQ ID NO: 28 (Fab, name in Kabat numbering, V domains shown)
# VH: B1 VH
# VL: B1 VL with K27Q, S56R, N57K, E59A
# notes: Fab on phage
# B10: huMA79b graft variant with HVR-L2 of SEQ ID NO: 35 (Fab, name in Kabat numbering, V domains shown)
# VH: B1 VH
# VL: B1 VL with K27Q, L58R, E59K
# notes: Fab on phage
# B11: huMA79b graft variant with HVR-L2 of SEQ ID NO: 33 (Fab, name in Kabat numbering, V domains shown)
# VH: B1 VH
# VL: B1 VL with K27Q, A55S, S56R, N57Y, E59S, S60R
# notes: Fab on phage
# B12: huMA79b graft variant with HVR-L3 of SEQ ID NO: 20 (Fab, name in Kabat numbering, V domains shown)
# VH: B1 VH
# VL: B1 VL with K27Q, E97S
# notes: Fab on phage; also called SPL-5 mutation
# B13: huMA79b graft variant with HVR-L2 of SEQ ID NO: 24 (Fab, name in Kabat numbering, V domains shown)
# VH: B1 VH
# VL: B1 VL with K27Q, S56R, N57K, E59G, S60N
# notes: Fab on phage
# B14: huMA79b graft variant with HVR-L2 of SEQ ID NO: 30 (Fab, name in Kabat numbering, V domains shown)
# VH: B1 VH
# VL: B1 VL with K27Q, S56R, N57K, E59R
# notes: Fab on phage
# B15: huMA79b graft variant with HVR-L2 of SEQ ID NO: 25 (Fab, name in Kabat numbering, V domains shown)
# VH: B1 VH
# VL: B1 VL with K27Q, S56R, N57K, E59K, S60R
# notes: Fab on phage
# B16: huMA79b graft variant with HVR-L2 of SEQ ID NO: 18 (Fab, name in Kabat numbering, V domains shown)
# VH: B1 VH
# VL: B1 VL with K27Q, L58R
# notes: Fab on phage
# B17: huMA79b graft variant with HVR-L2 of SEQ ID NO: 36 (Fab, name in Kabat numbering, V domains shown)
# VH: B1 VH
# VL: B1 VL with K27Q, N57K, E59G
# notes: Fab on phage
# B18: huMA79b graft variant with HVR-L2 of SEQ ID NO: 19 (Fab, name in Kabat numbering, V domains shown)
# VH: B1 VH
# VL: B1 VL with K27Q, E59K
# notes: Fab on phage
# Target: T1, extracellular domain of human CD79b (huCD79becd) (human, UniProt P40259 29-159)
# T1 construct: expressed in CHO cells
# T1 sequence: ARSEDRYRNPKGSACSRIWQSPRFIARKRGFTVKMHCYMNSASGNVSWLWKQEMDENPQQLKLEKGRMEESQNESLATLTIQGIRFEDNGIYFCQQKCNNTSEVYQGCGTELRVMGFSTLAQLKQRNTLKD
# Test: phage selection, Fab on phage
# Experimental: For phage selection, the extracellular domain of CD79b (huCD79becd) (2 μg/ml) was immobilized in PBS on MaxiSorp microtiter plates (Nunc) overnight at 4° C. Plates were blocked for at least 1 h using Casein Blocker (Pierce). Phage were harvested from the culture supernatant and suspended in PBS containing 0.5% BSA and 0.05% Tween 20 (PBSBT). Following addition of the phage library and phage selection for 2 h, microtiter wells were washed extensively with PBS containing 0.05% Tween 20 (PBST) to remove unbound phage and bound phage were eluted by incubating the wells with 100 mM HCl for 30 min. Selection stringency may be increased during successive rounds of selection by increasing the number of washes with PBST or by incubating with soluble huCD79becd for increasing time periods prior to elution.
row,Binder,binding result
1,B1,binds
2,B2,binds
3,B3,binds
4,B4,binds
5,B5,binds
6,B6,binds
7,B7,binds
8,B8,binds
9,B9,binds
10,B10,binds
11,B11,binds
12,B12,binds
13,B13,binds
14,B14,binds
15,B15,binds
16,B16,binds
17,B17,binds
18,B18,binds
